Results published in US20040171117A1 (GlaxoSmithKline, published 2004).

T1: soluble human RANKL protein (shRANKL) (human, UniProt O14788 140-317, limits assumed, biotinylated at a 20:1 molar ratio of NHS-biotin to protein (competition ELISA only))
T1 construct: also called sRANKL; soluble RANKL
T1 sequence (looked up): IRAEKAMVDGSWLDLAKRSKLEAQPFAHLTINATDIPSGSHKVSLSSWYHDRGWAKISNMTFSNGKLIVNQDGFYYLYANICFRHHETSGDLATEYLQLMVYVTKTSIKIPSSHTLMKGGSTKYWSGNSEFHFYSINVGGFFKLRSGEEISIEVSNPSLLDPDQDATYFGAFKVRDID


Tests used:
[1] = target: T1, soluble human RANKL protein (shRANKL); assay: competition ELISA: inhibition of biotinylated shRANKL binding to coated RANK-Fc
Source text: (§1) A. A competition ELISA was established using a human RANK-Fc fusion protein coated on plastic and a biotinylated soluble human RANKL protein for detection in solution. The RANK-Fc and RANKL proteins were produced in CHO cells and Pichia pastoris, respectively, and purified to >90% homogeneity. The shRANKL (soluble, human RANKL) protein was biotinylated at a 20:1 molar ratio of NHS-biotin to protein (Pierce, Rockford, Ill.) according to th manufacturer's specifications. 96-well ELISA plates were coated overnight at 4° C. with 50 ng/well ([…]) RANK-Fc in pH 9.6 carbonate-bicarbonate buffer. Plates were washed in pH 7.4 Tris-Saline buffer containing 0.1% Tween 20 and blocked for 2 h at RT in 1% BSA/PBS. Competitor proteins (RANK-Fc; death receptor 5 (DR5)-Fc; OPG-Fc; RANKL MAb 19H22) were diluted in 0.01% Tween 20/PBS and added to wells prior to the addition of biotinylated shRANKL (0.43 nM) and the combined samples were incubated for 2 hrs at room temperature. The amount of biotinylated shRANKL bound to coated RANK-Fc (+/−competitor) was measured using alkaline phosphatase conjugated streptavidin. The substrate for signal detection was 105 PNPP (Pierce Inc., Rockford, Ill.) and absorbance measured at 405 nm using a Spectra Max 340 plate reader.

[2] = target: T1, soluble human RANKL protein (shRANKL); assay: cell-based or functional assay
[3] = target: T1, soluble human RANKL protein (shRANKL); assay: not stated there (paragraph 33 defines high affinity as determined by optical biosensor analysis)
[4] = target: T1, soluble human RANKL protein (shRANKL); assay: competition ELISA: soluble RANK-Fc inhibiting biotinylated shRANKL binding to coated RANK-Fc
Source text: as §1

Binder	IC50 [1]	IC50, human monocyte osteoclastogenesis (formation of multinuclear cells) with 50 ng/ml human soluble RANKL plus M-CSF [2]	Kd [3]	IC50 [4]
OPG-Fc (Fc fusion, UniProt O00300 22-201, looked up, Construct not described; also called osteoprotegerin-Fc; not shown: Fc part; not described) ETFPPKYLHYDEETSHQLLCDKCPPGTYLKQHCTAKWKTVCAPCPDHYYTDSWHTSDECLYCSPVCKELQYVKQECNRTHNRVCECKEGRYLEIEFCLKHRSCPPGFGVVQAGTPERNTVCKRCPDGFFSNETSSKAPCRKHTNCSVFGLLLTQKGNATHDNICSGNSESTQKCGIDVTL	~0.5 nM			
RANKL MAb 19H22 (mouse monoclonal antibody 19H22) (antibody, IgG2b, V domains shown, also called 19H22 MAb; murine RANKL MAb 19H22) VH: EIQLQQSGAELVNPGASVKLSCTASGFNIKGTYMHWVKQRPEQGLEWIGRIDPANGNTKYDPKFQGKATITTDTSPNTAYLQLSSLTSEDTAVYYCTTQFHYYGYGGVYWGQGTLVTVSA VL: QIVLTQSPAIMSASPGEKVTMTCSASSSVSYMYWYQQKPGSSPRLLIYDTSNLASGVPVRFSGSGSGTSYSLTISRMEAEDAATYYCQQWSNFPLTFGAGTKLELKR	~2 nM	~4 µg/mL	~0.1 nM	
human RANK-Fc fusion protein (Fc fusion, UniProt Q9Y6Q6 30-212, looked up, Produced in CHO cells; not shown: Fc part) IAPPCTSEKHYEHLGRCCNKCEPGKYMSSKCTTTSDSVCLPCGPDEYLDSWNEEDKCLLHKVCDTGKALVAVVAGNSTTPRRCACTAGYHWSQDCECCRRNTECAPGLGAQHPLQLNKDTVCKPCLAGYFSDAFSSTDKCRPWTNCTFLGKRVEHHGTEKSDAVCSSSLPARKPPNEPHVYLP		~0.5 µg/mL		~6 nM
